Measured values published in patent US5739278A, “Compositions for protein tyrosine phosphatases” (University of Washington, priority 1995, dated 1998).
Where no end group is shown, it is not given here. [ ]: non-standard residue; d: D form. pY = N[C@@H](Cc1ccc(OP(=O)(O)O)cc1)C(=O)O

Experiments:
Assay type in all cases: biochemical
TCΔC11.PTP = target: T1, TCΔC11.PTP (Homo sapiens, UniProt P17706); assay: Phosphatase assay with ENDY(P)INASL as substrate
T1 construct: both the wild type and truncated forms of the T-cell phosphatase; made in house; host or cells: Sf9 cells (baculovirus)
T1 sequence (P17706 1-317 limits assumed): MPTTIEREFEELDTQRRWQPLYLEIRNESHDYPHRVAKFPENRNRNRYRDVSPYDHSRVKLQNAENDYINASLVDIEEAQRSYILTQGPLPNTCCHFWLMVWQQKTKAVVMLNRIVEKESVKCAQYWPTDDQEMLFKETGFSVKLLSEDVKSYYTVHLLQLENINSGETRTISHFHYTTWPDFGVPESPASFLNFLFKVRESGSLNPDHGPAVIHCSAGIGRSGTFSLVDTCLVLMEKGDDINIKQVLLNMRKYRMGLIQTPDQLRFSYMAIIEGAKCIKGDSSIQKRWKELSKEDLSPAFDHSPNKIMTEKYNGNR
Procedure: (§1) The tyrosine phosphatases TC.PTP, TCΔC11.PTP, and RPTPα were purified from infected Sf9 cells as described recently (Zander et al., Biochemistry 30: 6964-6970, 1991; Daum et al., J. Biol. Chem. 266: 12211-12215, 1991). The 37 kDa form of PTP1B and CD45 were purified from placenta and spleen, respectively (according to Tonks et al., J. Biol. Chem. 263: 6722-6730, 1988; Tonks et al., Biochemistry 27: 8695-8701, 1988).
(§2) Phosphatase assays with ENDY(P)INASL were performed in buffer M6. Aliquots of 30 μl or 60 μl containing the phosphopeptide, the phosphatase (-beads) and effectors were incubated for 10 minutes at 30° C. The reaction was stopped by adding 200 μl of a suspension of 10% activated, acid-washed Norit A charcoal (v/v) in 0.9N HCl, 0.1M pyrophosphate and 2 mM NaH2 PO4 (according to Streuli et al., Proc. Natl. Acad. Sci. USA 86: 8698-8702, 1989). The mixture was cleared by 10-minute centrifugation and the radioactivity of 150 μl of the supernate was determined. Assays with MBP and RCML were performed as described in Tonks et al., J. Biol. Chem. 263: 6722-6730, 1988. Protein concentration was determined with BSA as standard (Bradford, Anal. Biochem. 72: 248-254, 1976).

PTP1B = target: T2, PTP1B (Homo sapiens, UniProt P18031); assay: Phosphatase assay with ENDY(P)INASL as substrate; conditions: non-linear regression of substrate saturation curves, mean of two experiments
T2 construct: The 37 kDa form of PTP1B; from tissue; host or cells: placenta
T2 sequence (P18031 1-321 limits assumed): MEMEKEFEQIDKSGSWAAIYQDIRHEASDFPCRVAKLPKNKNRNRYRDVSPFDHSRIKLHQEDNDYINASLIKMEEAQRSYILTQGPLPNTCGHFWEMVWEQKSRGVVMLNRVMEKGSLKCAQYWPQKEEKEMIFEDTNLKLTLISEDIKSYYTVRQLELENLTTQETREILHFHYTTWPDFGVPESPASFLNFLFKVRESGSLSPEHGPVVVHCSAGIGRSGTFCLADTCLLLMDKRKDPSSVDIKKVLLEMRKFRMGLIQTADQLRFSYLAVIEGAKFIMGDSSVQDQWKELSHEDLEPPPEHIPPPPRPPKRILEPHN
Procedure: as §1, §2

TC.PTP [1] = target: T3, TC.PTP (Homo sapiens, UniProt P17706); assay: Phosphatase assay with ENDY(P)INASL as substrate; conditions: TC20
T3 construct: made in house; host or cells: Sf9 cells (baculovirus)
T3 sequence (P17706 1-415): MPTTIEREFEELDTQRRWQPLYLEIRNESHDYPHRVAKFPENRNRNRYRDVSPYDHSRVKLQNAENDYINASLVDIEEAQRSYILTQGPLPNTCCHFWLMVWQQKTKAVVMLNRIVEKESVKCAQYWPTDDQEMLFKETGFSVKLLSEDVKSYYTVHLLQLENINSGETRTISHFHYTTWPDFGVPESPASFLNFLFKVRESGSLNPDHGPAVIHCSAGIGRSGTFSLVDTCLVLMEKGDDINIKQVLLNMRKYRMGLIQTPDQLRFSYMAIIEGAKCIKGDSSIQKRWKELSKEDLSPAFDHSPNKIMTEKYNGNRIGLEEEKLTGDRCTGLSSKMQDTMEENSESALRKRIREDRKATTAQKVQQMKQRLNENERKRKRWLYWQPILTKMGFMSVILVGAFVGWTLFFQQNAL
Procedure: as §1, §2

TC.PTP [2] = target: T3, TC.PTP; assay: Determination of TC.PTP activity in immunoprecipitates; conditions: for % Dephosphorylation: 100% = total bound radioactivity in the assay
Procedure: Immunoprecipitations were carded out in 500 μl buffer AT containing phosphatase (in the amount indicated in the tables below), 3 μl rabbit antisera #6228 raised against the baculovirus expressed TCΔC11.PTP (Zander et al., Biochemistry 30: 6964-6970, 1991) and 20 μl protein A agarose beads. The mixture was rotated overnight at 4° C. The beads were washed three times with HNTG and tested for PTP activity. No PTP activity was detected in controls without antisera.
as §2

[3] = non-linear regression of substrate saturation curves, mean of two experiments
[4] = one unit = release of 1 nmol phosphate per minute

What does the source list for “ENDY(P)INASL: ENDYINASL phosphorylated on its tyrosine residue (32P), used as PTP substrate (END[pY]INASL; also: phosphate 32P-labelled)”?
Km (TCΔC11.PTP; [3]): 1 ± 0.4 µM; Vmax (TCΔC11.PTP; [4]): 13374 +/- 970 U/mg; Km (PTP1B): 0.8 ± 0.45 µM; Km (TC.PTP [1]; [3]): 1.13 ± 0.14 µM; Vmax (TC.PTP [1]; [4]): 14221 +/- 7104 U/mg; Lowest amount of immunoprecipitated phosphatase that could be detected with the substrate (TC.PTP [2]; TC.PTP immunoprecipitates on beads): 1 ng; % Dephosphorylation (TC.PTP [2]; immunoprecipitated TC.PTP 0.3 ng): 0%; % Dephosphorylation (TC.PTP [2]; immunoprecipitated TC.PTP 1 ng): 1.8%; % Dephosphorylation (TC.PTP [2]; immunoprecipitated TC.PTP 3 ng): 3.9%; % Dephosphorylation (TC.PTP [2]; immunoprecipitated TC.PTP 10 ng): 10.8%; % Dephosphorylation (TC.PTP [2]; immunoprecipitated TC.PTP 30 ng): 17.5%; % Dephosphorylation (TC.PTP [2]; immunoprecipitated TC.PTP 100 ng): 28.1%
